In paper PMC10143966, “The Replicative DnaE Polymerase of Bacillus subtilis Recruits the Glycolytic Pyruvate Kinase (PykA) When Bound to Primed DNA Templates” (Life, 2023):
Read-outs that look alike come from different tables or passages of the source. Each block holds one molecule with its values, some of them ahead of it.

Columns and labels:
[1] = target: T1, B. subtilis DnaE polymerase (B. subtilis, UniProt O34623 1-1115); assay: SPR; 5'-biotinylated primed DNA probe (30 mer annealed to 110 mer) immobilised on a streptavidin SA chip (about 100 RU); DnaE (35 nM) added with increasing concentrations of PykA (0-1000 nM), CAT or PEPut; Biacore T200, 200 uL/min, 25 °C, 25 mM NaCl, 25 mM MgCl2, 150 mM Tris-HCl pH 7.5, 1 mM DTT; maximum RU values fitted to a one site-specific binding curve
T1 construct: DnaE DNA polymerase, Bacillus subtilis; also called replicative DnaE polymerase; lagging strand DNA polymerase
T1 sequence (looked up): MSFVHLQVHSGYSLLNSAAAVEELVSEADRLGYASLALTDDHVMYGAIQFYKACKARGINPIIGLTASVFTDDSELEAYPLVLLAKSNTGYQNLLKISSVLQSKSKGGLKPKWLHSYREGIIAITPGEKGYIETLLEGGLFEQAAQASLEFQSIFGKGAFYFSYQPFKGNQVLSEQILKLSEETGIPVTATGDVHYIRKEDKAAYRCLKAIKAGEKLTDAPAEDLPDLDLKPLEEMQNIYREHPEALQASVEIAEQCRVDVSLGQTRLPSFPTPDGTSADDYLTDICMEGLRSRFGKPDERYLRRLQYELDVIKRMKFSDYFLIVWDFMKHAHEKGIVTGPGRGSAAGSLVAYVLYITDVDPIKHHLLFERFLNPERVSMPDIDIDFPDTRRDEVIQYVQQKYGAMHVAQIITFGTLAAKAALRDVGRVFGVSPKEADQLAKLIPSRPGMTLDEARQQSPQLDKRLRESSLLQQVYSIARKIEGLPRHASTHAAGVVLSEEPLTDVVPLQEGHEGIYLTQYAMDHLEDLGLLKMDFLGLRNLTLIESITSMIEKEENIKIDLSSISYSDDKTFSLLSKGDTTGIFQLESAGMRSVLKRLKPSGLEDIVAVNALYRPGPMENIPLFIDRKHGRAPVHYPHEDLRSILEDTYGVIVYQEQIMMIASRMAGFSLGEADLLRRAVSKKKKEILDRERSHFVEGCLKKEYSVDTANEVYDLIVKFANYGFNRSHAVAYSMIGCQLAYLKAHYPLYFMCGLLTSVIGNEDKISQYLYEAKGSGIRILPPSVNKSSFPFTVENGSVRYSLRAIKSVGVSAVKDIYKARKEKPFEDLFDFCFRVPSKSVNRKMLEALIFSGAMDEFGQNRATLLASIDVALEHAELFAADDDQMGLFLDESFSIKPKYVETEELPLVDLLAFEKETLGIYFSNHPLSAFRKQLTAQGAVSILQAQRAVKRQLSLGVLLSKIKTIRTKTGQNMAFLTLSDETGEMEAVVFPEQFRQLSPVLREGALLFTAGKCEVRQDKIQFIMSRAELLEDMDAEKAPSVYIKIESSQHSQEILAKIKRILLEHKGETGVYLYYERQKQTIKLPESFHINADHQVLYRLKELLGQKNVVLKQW

PykA CAT domain = target: T2, PykA CAT domain (Bacillus subtilis, UniProt P80885 2-473); assay: SPR; no DnaE; 25 mM MgCl2; SPR (Biacore T200, SA chip): 25 mM NaCl, 25 mM MgCl2, 150 mM Tris-HCl pH 7.5, 1 mM DTT, 25 °C; details: protein: recombinant; tags: His-MBP removed by TEV; label: 5' biotin on 110 mer (strand 1); 30 mer primer annealed to 110 mer template, ssDNA on both sides; 5' A of the primer may be near/at the CCCCCT junction
T2 sequence: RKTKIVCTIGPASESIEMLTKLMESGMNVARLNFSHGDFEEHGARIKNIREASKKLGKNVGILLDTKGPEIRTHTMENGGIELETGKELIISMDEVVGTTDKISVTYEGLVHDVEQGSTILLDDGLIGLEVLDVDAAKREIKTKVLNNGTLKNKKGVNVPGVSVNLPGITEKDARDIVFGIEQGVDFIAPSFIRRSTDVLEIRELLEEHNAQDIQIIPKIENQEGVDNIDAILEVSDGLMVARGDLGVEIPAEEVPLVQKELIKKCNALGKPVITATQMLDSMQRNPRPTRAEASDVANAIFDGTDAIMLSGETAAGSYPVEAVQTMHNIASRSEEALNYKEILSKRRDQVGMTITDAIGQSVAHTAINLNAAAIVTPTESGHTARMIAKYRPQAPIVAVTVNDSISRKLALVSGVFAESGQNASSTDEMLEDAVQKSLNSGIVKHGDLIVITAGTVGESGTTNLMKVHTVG

PykA pyruvate kinase = target: T3, PykA pyruvate kinase (Bacillus subtilis, UniProt P80885 1-585); assay: as above; details: protein: recombinant; tags: His-MBP removed by TEV; chain copies: 4; label: 5' biotin on 110 mer (strand 1); 30 mer primer annealed to 110 mer template, ssDNA on both sides; 5' A of the primer may be near/at the CCCCCT junction
T3 sequence: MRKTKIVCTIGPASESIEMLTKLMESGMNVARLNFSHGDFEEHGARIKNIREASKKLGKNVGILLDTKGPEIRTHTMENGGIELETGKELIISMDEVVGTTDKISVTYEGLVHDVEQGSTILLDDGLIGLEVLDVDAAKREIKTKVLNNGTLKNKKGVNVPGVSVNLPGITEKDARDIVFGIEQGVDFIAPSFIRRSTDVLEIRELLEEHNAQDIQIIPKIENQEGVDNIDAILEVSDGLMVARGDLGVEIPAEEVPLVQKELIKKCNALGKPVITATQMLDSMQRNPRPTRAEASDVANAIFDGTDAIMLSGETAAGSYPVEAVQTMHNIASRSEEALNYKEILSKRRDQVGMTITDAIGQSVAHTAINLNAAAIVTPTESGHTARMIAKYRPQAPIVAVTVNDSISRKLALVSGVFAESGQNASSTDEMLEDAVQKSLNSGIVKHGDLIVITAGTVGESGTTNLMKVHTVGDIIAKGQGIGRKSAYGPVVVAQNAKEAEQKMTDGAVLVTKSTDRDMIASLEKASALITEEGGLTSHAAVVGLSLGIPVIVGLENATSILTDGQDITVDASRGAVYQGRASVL

PykA PEPut domain = target: T4, PykA PEPut domain (Bacillus subtilis, UniProt P80885 494-585); assay: as above; details: protein: recombinant; tags: His-MBP removed by TEV; label: 5' biotin on 110 mer (strand 1); 30 mer primer annealed to 110 mer template, ssDNA on both sides; 5' A of the primer may be near/at the CCCCCT junction
T4 sequence: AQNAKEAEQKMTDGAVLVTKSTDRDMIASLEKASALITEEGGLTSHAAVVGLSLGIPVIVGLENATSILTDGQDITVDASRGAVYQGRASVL

DnaE polymerase = DnaE polymerase (Bacillus subtilis, UniProt O34623 1-1115); assay: SPR; 25 mM MgCl2; DnaE 0-700 nM; SPR (Biacore T200, SA chip): 25 mM NaCl, 25 mM MgCl2, 150 mM Tris-HCl pH 7.5, 1 mM DTT, 25 °C; details: protein: recombinant; label: 5' biotin on 110 mer (strand 1); 30 mer primer annealed to 110 mer template, ssDNA on both sides; 5' A of the primer may be near/at the CCCCCT junction
[2] = target: DnaE polymerase;PykA CAT domain (Bacillus subtilis;Bacillus subtilis, UniProt O34623;P80885 1-1115;2-473, |); assay: SPR; CAT titrated onto DnaE (35 nM) on DNA; Kd is for CAT to DnaE-DNA complex; 25 mM MgCl2; SPR (Biacore T200, SA chip): 25 mM NaCl, 25 mM MgCl2, 150 mM Tris-HCl pH 7.5, 1 mM DTT, 25 °C; details: protein: recombinant;recombinant; tags: ;His-MBP removed by TEV; label: 5' biotin on 110 mer (strand 1); 30 mer primer annealed to 110 mer template, ssDNA on both sides; 5' A of the primer may be near/at the CCCCCT junction
[3] = target: DnaE polymerase;PykA pyruvate kinase (Bacillus subtilis;Bacillus subtilis, UniProt O34623;P80885 1-1115;1-585, |); assay: SPR; PykA titrated (0-1000 nM) onto DnaE (35 nM) on DNA; Kd is for PykA to DnaE-DNA complex; 25 mM MgCl2; SPR (Biacore T200, SA chip): 25 mM NaCl, 25 mM MgCl2, 150 mM Tris-HCl pH 7.5, 1 mM DTT, 25 °C; details: protein: recombinant;recombinant; tags: ;His-MBP removed by TEV; copies: 1;4; label: 5' biotin on 110 mer (strand 1); 30 mer primer annealed to 110 mer template, ssDNA on both sides; 5' A of the primer may be near/at the CCCCCT junction

Kd [1]: 7.33 nM
Molecule: CAT domain of B. subtilis PykA (domain or fragment)

B1: primed probe, 30 mer on 5'-biotinylated 110 mer (mixed)
DNA 1: CACACACACACACACACACACACACACACACACACACACACACACACACACACACACACCCCCTTTAAAAAAAAAAAAAAAAGCCAAAAGCAGTGCCAAGCTTGCATGCC
DNA 2: AGGGGGTGTGTGTGTGTGTGTGTGTGTGTG
binding result (PykA CAT domain): no binding
binding result (PykA pyruvate kinase): no binding
binding result (PykA PEPut domain): no binding
Kd (DnaE polymerase): 146 nM
Kd [2]: 7.33 nM
Kd [3]: 14.6 nM

Kd ([1]; both partners purified): 14.6 nM
B2: B. subtilis pyruvate kinase PykA, full-length, wild type (enzyme, UniProt P80885 1-585, looked up)
chain: T3 sequence
notes: PykA pyruvate kinase, Bacillus subtilis; 1755 bp pykA fragment amplified from genomic DNA, cloned into p2CT; the same vector gives an N-terminal tag for PEPut; Tetramer: legends give 16 nM monomers as 4 nM tetramers; also called full-length PykA; wild-type PykA; source: E. coli Rosetta (DE3), purified (HisTrap IMAC, TEV cleavage, reverse IMAC, Superdex 200 gel filtration)
